Assay results: patent EP1950300A2 (Genentech, Inc., dated 2008)

Assays:
VEGF(8-109) [1] = molecular target: T1, VEGF(8-109) (UniProt P15692 214-315); experiment: SPR (BIACORE-2000), ratio against Y0192
T1 construct: range 8-109; Covalently coupled to the BIACORE chip
T1 sequence (looked up): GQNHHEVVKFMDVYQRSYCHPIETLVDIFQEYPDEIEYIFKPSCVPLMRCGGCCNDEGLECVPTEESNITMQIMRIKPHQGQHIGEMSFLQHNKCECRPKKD

VEGF(8-109) [2] = molecular target: T1, VEGF(8-109); experiment: SPR (BIACORE-2000), Kd calculated as koff/kon
VEGF(8-109) [3] = molecular target: T1, VEGF(8-109); experiment: SPR (BIACORE-2000), VEGF(8-109) coupled to the chip, Fab injected, 25 C

Binder	Kd(wt)/Kd(mut) (VEGF(8-109) [1])	Kd (VEGF(8-109) [2])	koff (VEGF(8-109) [3])	kon (VEGF(8-109) [3])
Y0241-6 (Fab, V domains shown, Clone from library YC-86 built on pY0192, expressed as Fab) VH: EVQLVESGGGLVQPGGSLRLSCAASGYDYTNYGMNWVRQAPGKGLEWVGWINTYTGEPTYAADFKRRFTFSLDTSKSTAYLQMNSLRAEDTAVYYCAKYPHYYGSSHWYFDVWGQGTL VL: DIQLTQSPSSLSASVGDRVTITCRANEQLSNYLNWYQQKPGKAPKVLIYFTSSLHSGVPSRFSGSGSGTDFTLTISSLQPEDFATYYCQQYSTVPWTFGQGTKVEIKR	1.1 fold	2.7 nM	0.000129 s⁻¹	47000 M⁻¹ s⁻¹
Y0239-9 (Fab, V domains shown, Clone from library YC-95 on pY0192; Expressed as Fab; The limits of the flanking pieces are my reading) VH: EVQLVESGGGLVQPGGSLRLSCAASGYTFTNYGMNWVRQAPGKGLEWVGWINTYTGEPTYAADFKRRFTFSLDTSKSTAYLQMNSLRAEDTAVYYCAKYPHYYLGESSHWYFDVWGQGTL VL: DIQLTQSPSSLSASVGDRVTITCRANEQLSNYLNWYQQKPGKAPKVLIYFTSSLHSGVPSRFSGSGSGTDFTLTISSLQPEDFATYYCQQYSTVPWTFGQGTKVEIKR	6 fold	–	–	–
Y0239-8 (Fab, V domains shown, Clone from library YC-95 (G104 replaced by a random peptide) on pY0192; Expressed as Fab; The limits of the flanking pieces are my reading) VH: EVQLVESGGGLVQPGGSLRLSCAASGYTFTNYGMNWVRQAPGKGLEWVGWINTYTGEPTYAADFKRRFTFSLDTSKSTAYLQMNSLRAEDTAVYYCAKYPHYYLRDGRSSHWYFDVWGQGTL VL: DIQLTQSPSSLSASVGDRVTITCRANEQLSNYLNWYQQKPGKAPKVLIYFTSSLHSGVPSRFSGSGSGTDFTLTISSLQPEDFATYYCQQYSTVPWTFGQGTKVEIKR	5.8 fold	–	–	–
Y0239-19 (Fab, V domains shown, Expressed as Fab; also called insertion variant Y0239-19; VNERK motif variant) VH: EVQLVESGGGLVQPGGSLRLSCAASGYTFTNYGMNWVRQAPGKGLEWVGWINTYTGEPTYAADFKRRFTFSLDTSKSTAYLQMNSLRAEDTAVYYCAKYPHYYVNERKSHWYFDVWGQGTL VL: DIQLTQSPSSLSASVGDRVTITCRANEQLSNYLNWYQQKPGKAPKVLIYFTSSLHSGVPSRFSGSGSGTDFTLTISSLQPEDFATYYCQQYSTVPWTFGQGTKVEIKR	9.7 fold	–	–	–
Y0242-1 (Fab, V domains shown, Clone from library YC-90; Expressed as Fab) VH: EVQLVESGGGLVQPGGSLRLSCAASGYTFTNYGMNWVRQAPGKGLEWVGWINTWTGEPTYAADFKRRFTFSLDTSKSTAYLQMNSLRAEDTAVYYCAKYPHYYGSSHWYFDVWGQGTL VL: DIQLTQSPSSLSASVGDRVTITCRANEQLSNYLNWYQQKPGKAPKVLIYFTSSLHSGVPSRFSGSGSGTDFTLTISSLQPEDFATYYCQQYSTVPWTFGQGTKVEIKR	1.6 fold	–	–	–
Y0240-1 (Fab, V domains shown, Clone from library YC-98 (G104 and S105 replaced by a random peptide) on pY0192; Expressed as Fab; The limits of the flanking pieces are my reading) VH: EVQLVESGGGLVQPGGSLRLSCAASGYTFTNYGMNWVRQAPGKGLEWVGWINTYTGEPTYAADFKRRFTFSLDTSKSTAYLQMNSLRAEDTAVYYCAKYPHYYLTDHKSHWYFDVWGQGTL VL: DIQLTQSPSSLSASVGDRVTITCRANEQLSNYLNWYQQKPGKAPKVLIYFTSSLHSGVPSRFSGSGSGTDFTLTISSLQPEDFATYYCQQYSTVPWTFGQGTKVEIKR	5.8 fold	–	–	–
Y0241-7 (Fab, V domains shown, Clone from library YC-86 built on pY0192, expressed as Fab; This is not written as a substitution) VH: EVQLVESGGGLVQPGGSLRLSCAASGYDWTNYGMNWVRQAPGKGLEWVGWINTYTGEPTYAADFKRRFTFSLDTSKSTAYLQMNSLRAEDTAVYYCAKYPHYYGSSHWYFDVWGQGTL VL: DIQLTQSPSSLSASVGDRVTITCRANEQLSNYLNWYQQKPGKAPKVLIYFTSSLHSGVPSRFSGSGSGTDFTLTISSLQPEDFATYYCQQYSTVPWTFGQGTKVEIKR	1 fold	3 nM	0.000128 s⁻¹	46000 M⁻¹ s⁻¹
Y0313-2 (Fab, V domains shown, Combines the CDR H3 insertion of Y0239-19 with T28D/N31H; Prepared as Fab; also called CDR combination variant Y0313-2; Insert-Fab Y0313-2) VH: EVQLVESGGGLVQPGGSLRLSCAASGYDFTHYGMNWVRQAPGKGLEWVGWINTYTGEPTYAADFKRRFTFSLDTSKSTAYLQMNSLRAEDTAVYYCAKYPHYYVNERKSHWYFDVWGQGTL VL: DIQLTQSPSSLSASVGDRVTITCRANEQLSNYLNWYQQKPGKAPKVLIYFTSSLHSGVPSRFSGSGSGTDFTLTISSLQPEDFATYYCQQYSTVPWTFGQGTKVEIKR	8 fold	–	–	–
Y0239-2 (Fab, V domains shown, Clone from library YC-95 on pY0192; Expressed as Fab; The limits of the flanking pieces are my reading) VH: EVQLVESGGGLVQPGGSLRLSCAASGYTFTNYGMNWVRQAPGKGLEWVGWINTYTGEPTYAADFKRRFTFSLDTSKSTAYLQMNSLRAEDTAVYYCAKYPHYYKNDKSSHWYFDVWGQGTL VL: DIQLTQSPSSLSASVGDRVTITCRANEQLSNYLNWYQQKPGKAPKVLIYFTSSLHSGVPSRFSGSGSGTDFTLTISSLQPEDFATYYCQQYSTVPWTFGQGTKVEIKR	0.6 fold	–	–	–
Y0261-6 (Fab, V domains shown, Clone from library YC-98 on pY0192; Expressed as Fab; The limits of the flanking pieces are my reading) VH: EVQLVESGGGLVQPGGSLRLSCAASGYTFTNYGMNWVRQAPGKGLEWVGWINTYTGEPTYAADFKRRFTFSLDTSKSTAYLQMNSLRAEDTAVYYCAKYPHYYLKDKKSHWYFDVWGQGTL VL: DIQLTQSPSSLSASVGDRVTITCRANEQLSNYLNWYQQKPGKAPKVLIYFTSSLHSGVPSRFSGSGSGTDFTLTISSLQPEDFATYYCQQYSTVPWTFGQGTKVEIKR	5 fold	–	–	–
Y0239-12 (Fab, V domains shown, Clone from library YC-98 on pY0192; Expressed as Fab; The limits of the flanking pieces are my reading) VH: EVQLVESGGGLVQPGGSLRLSCAASGYTFTNYGMNWVRQAPGKGLEWVGWINTYTGEPTYAADFKRRFTFSLDTSKSTAYLQMNSLRAEDTAVYYCAKYPHYYAHEKKSHWYFDVWGQGTL VL: DIQLTQSPSSLSASVGDRVTITCRANEQLSNYLNWYQQKPGKAPKVLIYFTSSLHSGVPSRFSGSGSGTDFTLTISSLQPEDFATYYCQQYSTVPWTFGQGTKVEIKR	4.8 fold	–	–	–
